# Reference: US20050147555A1
# Positions of bridges follow the written chain, without caps; N, C: chain ends. Groups on a side chain read outwards from the residue. *: point of attachment. Biotin = O=C1N[C@H]2[C@H](CS[C@H]2CCCCC(=O)*)N1; AEEA = NCCOCCOCC(=O)O
# B1: P5-XB (peptide)
# peptide: Ac-AGPKWCEEDWYYCMITGTGGGK([AEEA-AEEA-Biotin])-NH2
# modifications: disulfide 6-13
# SMILES: CC[C@H](C)[C@H](NC(=O)[C@H](CCSC)NC(=O)[C@@H]1CSSC[C@H](NC(=O)[C@H](Cc2c[nH]c3ccccc23)NC(=O)[C@H](CCCCN)NC(=O)[C@@H]2CCCN2C(=O)CNC(=O)[C@H](C)NC(C)=O)C(=O)N[C@@H](CCC(=O)O)C(=O)N[C@@H](CCC(=O)O)C(=O)N[C@@H](CC(=O)O)C(=O)N[C@@H](Cc2c[nH]c3ccccc23)C(=O)N[C@@H](Cc2ccc(O)cc2)C(=O)N[C@@H](Cc2ccc(O)cc2)C(=O)N1)C(=O)N[C@H](C(=O)NCC(=O)N[C@H](C(=O)NCC(=O)NCC(=O)NCC(=O)N[C@@H](CCCCNC(=O)COCCOCCNC(=O)COCCOCCNC(=O)CCCC[C@@H]1SC[C@@H]2NC(=O)N[C@@H]21)C(N)=O)[C@@H](C)O)[C@@H](C)O
# Molecular target: KDR (VEGFR-2, Flk-1), full-length receptor on cells (human), P35968
# Sequence (P35968 20-1356): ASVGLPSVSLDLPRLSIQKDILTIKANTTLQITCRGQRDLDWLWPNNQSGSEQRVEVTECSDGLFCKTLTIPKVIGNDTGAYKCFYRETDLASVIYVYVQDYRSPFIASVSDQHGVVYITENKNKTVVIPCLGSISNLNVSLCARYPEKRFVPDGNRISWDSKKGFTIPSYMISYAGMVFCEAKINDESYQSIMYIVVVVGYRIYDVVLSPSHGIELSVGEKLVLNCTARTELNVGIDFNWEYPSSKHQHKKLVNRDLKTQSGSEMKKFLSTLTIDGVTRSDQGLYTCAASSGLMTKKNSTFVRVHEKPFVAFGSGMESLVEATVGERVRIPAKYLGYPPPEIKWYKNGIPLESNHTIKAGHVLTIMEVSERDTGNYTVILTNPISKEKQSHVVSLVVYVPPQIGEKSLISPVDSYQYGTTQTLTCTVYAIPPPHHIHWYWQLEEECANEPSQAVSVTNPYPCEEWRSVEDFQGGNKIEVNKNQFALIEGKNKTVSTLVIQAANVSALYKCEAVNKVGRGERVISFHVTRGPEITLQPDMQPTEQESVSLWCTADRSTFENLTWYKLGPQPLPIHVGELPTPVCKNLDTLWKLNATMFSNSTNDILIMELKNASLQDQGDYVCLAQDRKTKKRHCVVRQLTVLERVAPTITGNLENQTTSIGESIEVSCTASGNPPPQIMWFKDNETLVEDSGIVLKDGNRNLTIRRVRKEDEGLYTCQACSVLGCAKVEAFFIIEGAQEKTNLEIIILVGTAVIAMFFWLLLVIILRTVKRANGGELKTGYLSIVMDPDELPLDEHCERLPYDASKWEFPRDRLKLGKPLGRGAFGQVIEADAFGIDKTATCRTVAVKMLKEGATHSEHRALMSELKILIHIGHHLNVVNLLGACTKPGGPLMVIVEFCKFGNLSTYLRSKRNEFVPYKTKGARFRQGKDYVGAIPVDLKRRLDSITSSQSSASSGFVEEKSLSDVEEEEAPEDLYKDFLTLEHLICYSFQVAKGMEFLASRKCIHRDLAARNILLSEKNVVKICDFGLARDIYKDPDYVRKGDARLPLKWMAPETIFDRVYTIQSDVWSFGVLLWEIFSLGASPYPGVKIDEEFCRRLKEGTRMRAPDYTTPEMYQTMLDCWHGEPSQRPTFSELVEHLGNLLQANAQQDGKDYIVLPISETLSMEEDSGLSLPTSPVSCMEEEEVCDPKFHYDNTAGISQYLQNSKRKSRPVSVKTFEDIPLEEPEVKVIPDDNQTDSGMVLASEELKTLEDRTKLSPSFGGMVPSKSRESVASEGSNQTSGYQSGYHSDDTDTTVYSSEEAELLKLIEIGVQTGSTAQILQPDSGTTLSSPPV
# Test: competition with 125I-VEGF on KDR-transfected 293H cells
# Settings: remark: other sources report otherwise
binder,measurement,value
B1,% inhibition of 125I-VEGF binding at 0.3 µM,24.4%
same,% inhibition of 125I-VEGF binding at 30 µM,48%
